The values below come from publication doi:10.1101/541805.

The assay deals with rat Kv2.2-GFP (rat) (UniProt Q63099).

“GxTX-594 (guangxitoxin-1E Ser13Cys, Met35 norleucine, conjugated to Alexa 594) (from UniProt P84835 1-36) (peptide)” gave a Pearson correlation coefficient (colocalization with GFP) of 0.8.
